In article PMC8188212, “Multi‐Arm PEG/Peptidomimetic Conjugate Inhibitors of DR6/APP Interaction Block Hematogenous Tumor Cell Extravasation” (Advanced Science, 2021):
Square brackets hold non-standard residues; d marks the D form. Side chains are listed from the residue outwards. Ends that are not written are not given here. Peptide text beside a SMILES is read from it. * marks the point of attachment. maleimide = maleimide: 4-arm PEG5k maleimide reacting with the C-terminal Cys thiol; Cbz = O=C(OCc1ccccc1)*; CH2F = FC*

T1: DR6 protein (Homo sapiens, UniProt O75509)
T1 construct: purchased Sino Biology, Inc. (Shanghai, China)
T1 sequence (O75509 42-655): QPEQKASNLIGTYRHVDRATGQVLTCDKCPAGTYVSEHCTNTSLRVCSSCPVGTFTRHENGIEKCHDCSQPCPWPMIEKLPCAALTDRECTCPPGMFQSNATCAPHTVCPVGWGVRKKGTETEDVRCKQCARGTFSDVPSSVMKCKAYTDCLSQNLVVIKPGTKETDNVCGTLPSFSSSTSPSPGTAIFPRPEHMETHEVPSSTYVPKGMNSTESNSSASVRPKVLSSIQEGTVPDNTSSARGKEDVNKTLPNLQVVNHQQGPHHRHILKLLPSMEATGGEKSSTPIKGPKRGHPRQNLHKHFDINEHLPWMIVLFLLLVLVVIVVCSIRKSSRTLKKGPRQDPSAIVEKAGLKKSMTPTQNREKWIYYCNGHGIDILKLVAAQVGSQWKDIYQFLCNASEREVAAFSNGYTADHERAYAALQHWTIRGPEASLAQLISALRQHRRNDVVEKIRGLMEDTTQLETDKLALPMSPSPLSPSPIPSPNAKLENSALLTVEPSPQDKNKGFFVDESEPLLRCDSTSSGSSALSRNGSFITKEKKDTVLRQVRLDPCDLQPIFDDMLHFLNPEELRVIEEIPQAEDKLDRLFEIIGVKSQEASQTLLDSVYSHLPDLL

T2: death receptor 6 (DR6) protein (UniProt O75509 42-349, labelled with RED-tris-NTA second-generation dye)
T2 construct: death receptor 6 (DR6), bought recombinant protein; It is probably a soluble extracellular construct, but that is a surmise; source: bought: Sino Biology
T2 sequence (looked up): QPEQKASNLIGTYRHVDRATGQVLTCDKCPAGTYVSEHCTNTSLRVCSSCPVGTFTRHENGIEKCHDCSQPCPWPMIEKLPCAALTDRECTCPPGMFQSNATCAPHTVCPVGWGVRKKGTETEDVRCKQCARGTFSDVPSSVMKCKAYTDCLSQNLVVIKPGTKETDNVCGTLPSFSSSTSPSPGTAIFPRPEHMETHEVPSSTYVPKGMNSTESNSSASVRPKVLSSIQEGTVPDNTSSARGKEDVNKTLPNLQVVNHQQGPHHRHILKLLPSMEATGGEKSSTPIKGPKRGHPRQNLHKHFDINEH

T3: death receptor 6 (DR6) protein (UniProt O75509 42-349, labelled with RED-tris-NTA second-generation dye)
T3 construct: death receptor 6 (DR6), bought recombinant protein; source: bought: Sino Biology, Inc. (Shanghai, China)
T3 sequence (looked up): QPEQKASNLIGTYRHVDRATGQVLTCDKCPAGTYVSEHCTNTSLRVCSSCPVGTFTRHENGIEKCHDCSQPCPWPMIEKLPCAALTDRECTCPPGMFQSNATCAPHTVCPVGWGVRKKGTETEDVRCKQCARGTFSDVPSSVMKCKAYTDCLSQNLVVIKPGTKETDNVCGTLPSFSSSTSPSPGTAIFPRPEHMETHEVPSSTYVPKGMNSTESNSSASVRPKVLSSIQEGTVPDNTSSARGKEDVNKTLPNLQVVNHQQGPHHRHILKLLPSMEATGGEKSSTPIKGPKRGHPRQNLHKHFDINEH

B1: PEG‐tAHP‐DRI (tetra‐(D‐retro‐inverso isomer of AHP‐12) substitued 4‐arm PEG5k) (other)
peptide: [dP][dT][dT][dA][dD][dI][dT]C([maleimide-4‑arm PEG5k])
modifications: also: four peptides on one 4-arm PEG5k
notes: additional Cys residue at the C-terminal, coupled to the maleimide of the PEG arm; Four peptide chains on one 4-arm PEG5k, not a polypeptide oligomer; also called PEG‐tAHP‐12; PEGylated tetrameric AHP‐DRI‐12; source: synthetic peptide conjugated to 4-arm PEG5k maleimide, dialysed
B2: AHP‐12 (peptide)
peptide: TIDATTP
notes: heptapeptide selected from a random heptapeptide M13 phage display library against DR6; also called AHP-12 (TIDATTP); source: synthetic peptide (SPPS, HPLC purified)
B3: AHP‐DRI‐12 (D‐retro‐inverso isomer of AHP‐12) (peptide)
peptide: [dP][dT][dT][dA][dD][dI][dT]
notes: Peptidomimetic made of D-amino acids; source: synthetic peptide (SPPS, HPLC purified)
B4: AHP-24 (peptide)
peptide: NHQRLLP
notes: heptapeptide selected from a random phage display library against DR6; source: synthetic peptide (SPPS)
B5: AHP-23 (peptide)
peptide: GGLSMTR
notes: as for B4
B6: AHP-05 (peptide)
peptide: YYSGNNL
notes: as for B4
B7: AHP-10 (peptide)
peptide: NGSTHER
notes: as for B4
B8: AHP-01 (peptide)
peptide: WTLSINS
notes: as for B4
B9: AHP-03 (peptide)
peptide: YLPAPLP
notes: as for B4
B10: AHP-13 (peptide)
peptide: SHTDTNQ
notes: as for B4

Target: T1, DR6 protein
Assay: KD of DR6-targeting peptides for binding to DR6 protein by MST
Details: Tables S1 and S2, average of three independent experiments in triplicate, NB = No binding, read-out: KD ± SEM
Procedure: For labeling DR6 protein with Red‐tris‐NTA second‐generation dye, equal volume of DR6 protein (200 × 10^–9 M) and dye (100 × 10^–9 M) were mixed. The solution was incubated for 30 min at room temperature and centrifuged for 10 min at 4 ℃ and 15 000 × g. The DR6 protein was labeled and ready for the binding assay. Prepare 25 µL of the DR6‐targeting peptides at 20 × 10^–6 M and add 10 µL of the PBS‐T into the PCR tubes 2–12. Transfer 20 µL DR6‐targeting peptides into the PCR tube 1 and then transfer 10 µL of the DR6‐targeting peptides from tube 1 to tube 2 with a pipette and mix by pipetting up and down multiple times. Transfer 10 µL to tube 3 and mix. Repeat the procedure for tube 4–12. Add 10 µL of labeled protein to each tube (1–12) and mix by pipetting. The final DR6 protein concentration was 50× 10^−9 M. Load the capillaries and measure the samples by NanoTemper Monolith NT.015.^[ ^51 , ^52 ^]

Which Kd does the source give for `C[C@H](O)[C@@H](NC(=O)[C@@H](CC(=O)O)NC(=O)[C@H](NC(=O)[C@@H](Cc1c[nH]cn1)NC(=O)[C@H](N)CO)[C@H](C)O)C(=O)N[C@H](CC(N)=O)C(=O)N[C@H](CCC(N)=O)C(=O)O` [AHP-D-13] (H-[dS][dH][dT][dD][dT][dN][dQ]-OH) here?
The Kd was 3.174 ± 0.0088 µM.

For HSYPYTQ [AHP-17], which Kd is on record?
Its Kd is > 10 µM.

With TTYMPKM [AHP-18] as the molecule, how does the Kd read?
The Kd was > 10 µM.

For ANLLYES [AHP-04], which Kd is on record?
The Kd was > 10 µM.

Tested on: TCs over HUVECs monolayer
Assay: Transendothelial migration of TCs over HUVEC monolayer
Assay type: cell-based, human
Details: AHP-DRI-12 and PEG-tAHP-DRI 1 × 10^−6 M (AHP-DRI-12), Nec-1 30 × 10^–6 M, zVAD 100 × 10^–6 M; 48 h; compared with control; n = 3
Procedure: HUVECs (1 × 10^5) in DMEM were added into 24‐well plate transwell upper chambers and the medium was changed every 2 days. Using the EVOM resistance tester, the transendothelial resistance was measured daily. When the TEER resistance value was >200 Ωcm^2, the cells grew into a monolayer of tight connection. 2 × 10^5 GFP‐TCs were added into upper chambers. One milliliter DMEM containing 10% FBS was added into lower chambers overnight. AHP‐DRI‐12 and PEG‐tAHP‐DRI (1 ×10^–6 M AHP‐DRI‐12), Nec‐1 (30 × 10^–6 M), and zVAD (100 × 10^–6 M) were added in upper chambers, respectively. After incubation for 48 h, cells in lower chambers were observed by fluorescence microscope.^[ ^56 ^]

Which TCs transendothelial migration does the source give for `COC(=O)C[C@H](NC(=O)[C@H](C)NC(=O)[C@@H](NC(=O)OCc1ccccc1)C(C)C)C(=O)CF` [zVAD, z‐VAD‐fmk, reference compound] (Cbz-Val-Ala-Asp(OMe)-CH2F) here?
Its TCs transendothelial migration is “increased number of migrated TCs”.

Tested on: not listed separately
Assay: Pharmacokinetic study after intravenous injection
Assay type: in vivo
Details: SD rats, FITC-labeled, blood samples 0.5-72 h, microplate reader, n = 3
Procedure: To investigate the pharmacokinetic profile of AHP‐DRI‐12 and PEG‐tAHP‐DRI, SD rats were intravenously injected with FITC‐labeled AHP‐DRI‐12 and PEG‐tAHP‐DRI and blood samples were collected at 0.5, 1, 2, 4, 6, 24, 30, 48, 54, and 72 h. The DR6‐targeting peptide level of blood samples was measured by a microplate reader.

Which “half-life (T1/2)” value does the source give for `CC[C@@H](C)[C@@H](NC(=O)[C@@H](CC(=O)O)NC(=O)[C@@H](C)NC(=O)[C@H](NC(=O)[C@H](NC(=O)[C@H]1CCCN1)[C@H](C)O)[C@H](C)O)C(=O)N[C@@H](C(=O)O)[C@H](C)O` [AHP-DRI-12] (H-[dP][dT][dT][dA][dD][dI][dT]-OH) here?
The value was 7.8 h.

Tested on: HUVECs
Assay: Apoptosis analysis, annexin V-FITC/PI flow cytometry
Assay type: cell-based, human
Details: 24 h, rhTRAIL 100 ng mL^–1 as positive control
Procedure: To evaluate the number of apoptotic cells after treatment of AHP‐DRI‐12 and PEG‐tAHP‐DRI, 5 × 10^5 HUVECs were seeded in six‐well plates and treated with rhTRAIL (100 ng mL^–1, Peprotech) or AHP‐DRI‐12 and PEG‐tAHP‐DRI (0.1 × 10^–6, 1.0 × 10^–6, 10 × 10^–6 M AHP‐DRI‐12). After incubating for 24 h, HUVECs were harvested and resuspended in 100 µL binding buffer, and then stained with FITC‐labeled annexin V and propidium iodide (PI) (BD Biosciences) according to the manufacturer's instructions. The apoptotic number of HUVECs was measured by flow cytometry.

For TRAIL, which HUVECs undergoing apoptosis is on record?
The HUVECs undergoing apoptosis was 30%.

Target: hERG potassium channel (Homo sapiens, UniProt Q12809)
Assay: Whole-cell patch clamp recording of hERG current
Assay type: cell-based
Details: cisapride as positive control
Procedure: In addition, some common adverse effects suffered by frequently used medications were also evaluated. The whole‐cell patch clamp recording technique was used to record the whole‐cell hERG‐potassium to measure the cardiac toxicity of peptidomimetic agents on hERG potassium channel by utilizing cisapride as positive control (Figure 6E; Figure S10, Supporting Information). […] Meanwhile, the blood biochemical indexes of ligand‐treated mice sacrificed on day 2 or day 15 were tested to examine the influences of peptidomimetic agents to liver and kidney (Figure S11, Supporting Information).

Sequence of hERG potassium channel (Q12809 whole entry): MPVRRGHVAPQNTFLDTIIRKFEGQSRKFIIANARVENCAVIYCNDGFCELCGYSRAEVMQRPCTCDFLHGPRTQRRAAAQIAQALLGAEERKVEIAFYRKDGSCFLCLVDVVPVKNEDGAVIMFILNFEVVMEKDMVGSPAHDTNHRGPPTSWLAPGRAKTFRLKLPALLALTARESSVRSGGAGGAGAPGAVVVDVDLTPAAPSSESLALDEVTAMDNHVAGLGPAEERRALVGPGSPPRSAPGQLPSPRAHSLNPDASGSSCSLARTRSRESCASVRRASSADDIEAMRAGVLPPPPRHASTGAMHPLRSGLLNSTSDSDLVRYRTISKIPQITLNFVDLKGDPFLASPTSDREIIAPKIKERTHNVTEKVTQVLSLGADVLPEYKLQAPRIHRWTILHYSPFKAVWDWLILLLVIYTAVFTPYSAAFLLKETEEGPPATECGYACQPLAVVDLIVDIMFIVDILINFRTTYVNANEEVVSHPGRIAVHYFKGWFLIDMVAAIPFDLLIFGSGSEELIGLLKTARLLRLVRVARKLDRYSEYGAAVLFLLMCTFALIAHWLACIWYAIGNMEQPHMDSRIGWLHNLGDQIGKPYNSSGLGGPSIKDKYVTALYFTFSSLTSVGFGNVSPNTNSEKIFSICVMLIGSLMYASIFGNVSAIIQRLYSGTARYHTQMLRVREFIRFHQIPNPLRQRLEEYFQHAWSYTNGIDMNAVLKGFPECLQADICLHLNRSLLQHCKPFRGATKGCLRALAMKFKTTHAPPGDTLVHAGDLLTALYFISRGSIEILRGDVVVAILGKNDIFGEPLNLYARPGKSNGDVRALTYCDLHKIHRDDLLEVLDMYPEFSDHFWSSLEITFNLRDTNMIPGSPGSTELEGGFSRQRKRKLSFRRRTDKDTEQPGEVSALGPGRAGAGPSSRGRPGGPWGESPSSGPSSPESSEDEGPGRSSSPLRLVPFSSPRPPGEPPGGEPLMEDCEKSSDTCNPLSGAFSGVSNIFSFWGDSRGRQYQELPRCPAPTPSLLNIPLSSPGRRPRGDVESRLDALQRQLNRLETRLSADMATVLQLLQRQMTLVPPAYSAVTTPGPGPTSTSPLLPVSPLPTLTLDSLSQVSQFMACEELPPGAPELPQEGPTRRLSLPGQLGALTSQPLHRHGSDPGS

With `CC[C@@H](C)[C@@H](NC(=O)[C@@H](CC(=O)O)NC(=O)[C@@H](C)NC(=O)[C@H](NC(=O)[C@H](NC(=O)[C@H]1CCCN1)[C@H](C)O)[C@H](C)O)C(=O)N[C@@H](C(=O)O)[C@H](C)O` [AHP-DRI-12] (H-[dP][dT][dT][dA][dD][dI][dT]-OH) as the molecule, how does the “inhibitory effect on hERG channels” value read?
Its value is “no significant inhibitory effect”.

Tested on: not listed separately
Assay: In vivo safety analysis in healthy mice
Design: species or system C57BL/6 mice
Details: healthy mice, intravenous, 0.2 µg g^–1 AHP-DRI-12; sacrificed day 2 or day 15
Procedure: For evaluating the toxicity of peptides in vivo, 6 week old healthy mice were intravenously injected with AHP‐DRI‐12 and PEG‐tAHP‐DRI (0.2 µg g^–1 AHP‐DRI‐12). After 2 and 15 days, mice were sacrificed and serum samples were collected for the biochemical analysis (ALT, AST, BRU, and URE). Tissue samples from various organs were collected for tissue sections. The tissue sections were analyzed by H&E staining and immunohistochemistry analysis.

For `CC[C@@H](C)[C@@H](NC(=O)[C@@H](CC(=O)O)NC(=O)[C@@H](C)NC(=O)[C@H](NC(=O)[C@H](NC(=O)[C@H]1CCCN1)[C@H](C)O)[C@H](C)O)C(=O)N[C@@H](C(=O)O)[C@H](C)O` [AHP-DRI-12] (H-[dP][dT][dT][dA][dD][dI][dT]-OH), which “damage to liver or kidney, blood biochemical indexes (ALT, AST, BRU, URE)” value is on record?
Its value is “could not cause any damage to liver or kidney”.

Target: T2, death receptor 6 (DR6) protein
Assay: MST; DR6 protein labelled with RED-tris-NTA second-generation dye, final 50 × 10^-9 M; peptides prepared at 20 × 10^-6 M and diluted serially 1:1 over 12 tubes in PBS-T; NanoTemper Monolith NT.015
Details: both partners purified

Which Kd does the source give for B1 here?
Its Kd is 0.0511 µM.

With B2 as the molecule, how does the Kd read?
The Kd was 0.322 µM.

Which Kd does the source give for B3 here?
Its Kd is 0.225 µM.

Target: T3, death receptor 6 (DR6) protein
Assay: MST; DR6 protein labelled with RED-tris-NTA second-generation dye, final 50 x 10^-9 M; peptide prepared at 20 x 10^-6 M, diluted serially 1:1 in PBS-T over 12 tubes and mixed with an equal volume of labelled DR6; NanoTemper Monolith NT.015
Details: both partners purified

For B4, which Kd is on record?
The Kd was 1.09 µM.

With B5 as the molecule, how does the Kd read?
The Kd was 4.46 µM.

For B6, which Kd is on record?
Its Kd is 1.1 µM.

Which Kd does the source give for B7 here?
The Kd was 0.528 µM.

With B8 as the molecule, how does the Kd read?
The Kd was 1.15 µM.

With B9 as the molecule, how does the Kd read?
Its Kd is 0.689 µM.

For B10, which Kd is on record?
The Kd was 1.15 µM.

Target: T3, death receptor 6 (DR6) protein
Assay: as above
Details: both partners purified
Remark: another data set of the same source

With B10 as the molecule, how does the Kd read?
The Kd was 0.457 ± 0.0116 µM.
